# Results reported in IntAct's records for PubMed 20006610.
# B1: Retinol dehydrogenase 12 (Homo sapiens), Q96NR8 (parent)
# chain: MLVTLGLLTSFFSFLYMVAPSIRKFFAGGVCRTNVQLPGKVVVITGANTGIGKETARELASRGARVYIACRDVLKGESAASEIRVDTKNSQVLVRKLDLSDTKSIRAFAEGFLAEEKQLHILINNAGVMMCPYSKTADGFETHLGVNHLGHFLLTYLLLERLKVSAPARVVNVSSVAHHIGKIPFHDLQSEKRYSRGFAYCHSKLANVLFTRELAKRLQGTGVTTYAVHPGVVRSELVRHSSLLCLLWRLFSPFVKTAREGAQTSLHCALAEGLEPLSGKYFSDCKRTWVSPRARNNKTAERLWNVSCELLGIRWE
# Variants of: B1
# Settings: with ubc_human UBC
row,Variant,effect of a mutation on the interaction
1,T49M,increasing interaction

# Variants of: B1
# Settings: with ubc_human UBC
# Remark: another data set of the same source
row,Variant,effect of a mutation on the interaction
1,I51N,increasing interaction
